The values below come from article PMC10563445, “Extracellular microRNA 130b‐3p inhibits eCIRP‐induced inflammation” (EMBO Reports, 2019).

Data set [1] concerns the target T1, rmCIRP (recombinant murine cold-inducible RNA-binding protein) (mouse, UniProt P60824 1-172).
T1 sequence: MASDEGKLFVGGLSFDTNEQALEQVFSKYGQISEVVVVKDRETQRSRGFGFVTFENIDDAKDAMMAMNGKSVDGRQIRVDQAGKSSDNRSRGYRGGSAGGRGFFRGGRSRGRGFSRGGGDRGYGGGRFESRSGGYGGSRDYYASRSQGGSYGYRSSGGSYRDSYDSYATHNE
The experiment in a line: SPR; RNA immobilized on SA chip; SPR (BIAcore T200), 1X HBS-EP running buffer; rmCIRP 7.8-500 nM over RNA; pH and temperature not stated. Particulars: single strand.

The target in data set [2] is TLR4/MD2 complex (human, UniProt O00206;Q9Y6Y9 24-631;19-160). The data set is described as follows: SPR; RNA analyte 31.25-1000 nM, no rmCIRP; SPR (BIAcore T200), 1X HBS-EP running buffer; rmCIRP 7.8-500 nM over RNA; pH and temperature not stated. Particulars: protein: commercial. (Surface plasmon resonance follows binding to a sensor surface in real time, without labels.)
Sequence of TLR4/MD2 complex (O00206 24-631, chain 1 of 2): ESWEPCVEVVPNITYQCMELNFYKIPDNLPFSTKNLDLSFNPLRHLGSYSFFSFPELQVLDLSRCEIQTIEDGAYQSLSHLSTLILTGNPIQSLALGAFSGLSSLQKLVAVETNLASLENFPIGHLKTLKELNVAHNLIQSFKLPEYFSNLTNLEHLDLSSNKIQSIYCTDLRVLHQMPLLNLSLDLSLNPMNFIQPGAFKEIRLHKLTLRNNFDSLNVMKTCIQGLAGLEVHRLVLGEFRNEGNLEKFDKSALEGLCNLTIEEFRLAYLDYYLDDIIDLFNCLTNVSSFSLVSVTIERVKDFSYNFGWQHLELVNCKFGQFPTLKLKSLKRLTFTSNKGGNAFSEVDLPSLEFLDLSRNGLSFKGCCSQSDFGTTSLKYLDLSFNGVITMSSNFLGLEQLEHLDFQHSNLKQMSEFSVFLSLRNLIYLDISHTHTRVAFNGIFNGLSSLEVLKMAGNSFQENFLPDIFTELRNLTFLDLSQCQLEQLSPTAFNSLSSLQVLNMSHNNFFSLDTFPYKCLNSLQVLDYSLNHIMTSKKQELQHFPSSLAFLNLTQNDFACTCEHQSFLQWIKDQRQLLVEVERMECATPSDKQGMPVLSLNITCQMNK
Sequence of TLR4/MD2 complex (Q9Y6Y9 19-160, chain 2 of 2): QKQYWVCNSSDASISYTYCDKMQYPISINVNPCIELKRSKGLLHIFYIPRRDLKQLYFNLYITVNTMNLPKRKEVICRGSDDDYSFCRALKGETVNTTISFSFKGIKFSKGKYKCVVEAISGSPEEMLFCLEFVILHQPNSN

Data set [3] deals with T2, human TLR4/MD2 complex (human, UniProt O00206 24-631; Q9Y6Y9 19-160).
T2 construct: Toll-like receptor 4 (TLR4), human, recombinant, in the bought TLR4/MD2 complex; Myeloid differentiation factor 2 (MD2), human, recombinant, in the bought TLR4/MD2 complex; also called TLR4 and myeloid differentiation factor 2 (MD2) complex; source: bought: R&D Systems
T2 sequence (O00206 24-631, chain 1 of 2): as the sequence (O00206 24-631, chain 1 of 2) above
T2 sequence (Q9Y6Y9 19-160, chain 2 of 2): as the sequence (Q9Y6Y9 19-160, chain 2 of 2) above
The experiment in a line: SPR; BIAcore T200; human TLR4/MD2 complex immobilised on a CM5 chip; rmCIRP (31.25-500 nM) injected alone as analyte; running buffer 1X HBS-EP; 1:1 binding model. The note with it: both partners purified.

Data set [4] concerns the target T2, human TLR4/MD2 complex. The experiment in a line: SPR; BIAcore T200; human TLR4/MD2 complex immobilised on a CM5 chip; rmCIRP (31.25-1,000 nM) incubated with a constant 50 nM miRNA 130b-3p mimic and injected as analyte; 1X HBS-EP; 1:1 binding model. The note with it: both partners purified.
In data set [5] the target is T2, human TLR4/MD2 complex. The data set is described as follows: SPR; BIAcore T200; human TLR4/MD2 complex immobilised on a CM5 chip; rmCIRP (31.25-1,000 nM) incubated with a constant 100 nM miRNA 130b-3p mimic and injected as analyte; 1X HBS-EP; 1:1 binding model. The note with it: both partners purified.
Data set [6] has as its target T1, rmCIRP (recombinant murine …). The data set is described as follows: SPR; RNA immobilized on SA chip; text misprints 8.4 x 10^8 M; SPR (BIAcore T200), 1X HBS-EP running buffer; rmCIRP 7.8-500 nM over RNA; pH and temperature not stated. The note with it: single strand.

As to CAGUGCAAUGAUGAAAGGGCAU (ssRNA) [miRNA 130b-3p mimic, biotinylated], the Kd (as a rule, the concentration at which binding is half-saturated) in data set [1] was determined as 50.1 ± 3 nM.

CAGUGGUUUUACCCUAUGGUAG (ssRNA) [miRNA 140 mimic (140-5p), biotinylated]: the Kd in data set [1] came out at 160 ± 1.9 nM. On to CAGUGCAAUGAUGAAAGGGCAU (ssRNA) [miRNA 130b-3p mimic (analyte)], for which the binding result in data set [2] was “no binding”.

B1: recombinant murine cold-inducible RNA-binding protein (natural protein, mouse, UniProt P60824 1-172, looked up)
chain: T1 sequence
notes: also called rmCIRP; recombinant mouse (rm) CIRP
In data set [3], B1 came in with a Kd of 116.5 ± 0.8 nM. Besides, in data set [4], the “KD with 50 nM miRNA 130b-3p mimic” value was found to be 420 nM. In data set [5], the “KD with 100 nM miRNA 130b-3p mimic” value amounted to 40000 nM.

Regarding UUCACAGUGGCUAAGUUCUGC (ssRNA) [miRNA 27b mimic (27b-3p), biotinylated], the Kd in data set [6] came out at 83.5 ± 3.1 nM.
